Test in all cases: BLI
For orientation: In BLI a coated tip is dipped into the sample, and binding shifts an interference pattern.

Test [1] deals with T1, biotinylated recombinant hSIRPα (extracellular portion) (human, UniProt P78324 31-373, biotin (Sulfo-NHS-LC-LC-Biotin)).
Test [2] concerns the target T1, biotinylated recombinant hSIRPα …. This is another data set of the same source.
Test [3] shares this target. The source holds these as a separate data set.

Read-outs that look alike come from different tables or passages of the source.

T1 sequence (P78324 31-373): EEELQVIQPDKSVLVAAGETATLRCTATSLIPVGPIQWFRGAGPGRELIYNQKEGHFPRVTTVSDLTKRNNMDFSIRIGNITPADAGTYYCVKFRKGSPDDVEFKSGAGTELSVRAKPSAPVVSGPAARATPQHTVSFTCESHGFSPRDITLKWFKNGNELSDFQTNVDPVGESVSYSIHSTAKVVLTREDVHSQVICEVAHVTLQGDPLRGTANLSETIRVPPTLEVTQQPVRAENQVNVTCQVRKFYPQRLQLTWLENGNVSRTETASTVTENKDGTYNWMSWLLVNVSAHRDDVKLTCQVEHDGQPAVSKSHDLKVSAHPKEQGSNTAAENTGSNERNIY

B1: hSIRPα Nb S7 (VHH)
VHH: HVQLVESGGGLVQVGDSLRLSCAPSGRTFRAYAMAWFRQAPGKEREFVAAIRWIGGTPSYKDSVKGRFTISRDNARNTFYLQMNSLEPQDTGVYYCAAEETQKGSGLGHDGRHYDYWGQGTPVTVSS
With B1, the dissociation rate constant (koff) – broadly, the rate constant with which the complex falls apart – in test [1] was 0.0123 s⁻¹. In addition, in test [2], the Kd (commonly the constant that tells how readily two partners part at equilibrium) is 20 nM.

B2: hSIRPα Nb S43 (VHH)
VHH: HVQLVESGGGLVQPGGSARLSCAASGFDLDYFAIGWFRQAPGKEREGVSCISTRSETTNYVDSVKGRFTISRDNAISTVYLQMNNLKPEDTAVYYCAADWADWTMTGCQMTWDDYNYWGQGAQVTVSS
For B2, in test [1], the koff amounted to 0.131 s⁻¹. In test [2], the Kd was found to be 99 nM.

B3: hSIRPα Nb S44 (VHH)
VHH: QVQLQESGGGLVQPGGSLRLACAASGFTFSSYDMSWVRQAPGKGLEWVSDIKSGGGRTYYADSVKGRFTISRDNAKNTVYLQMNSLKPEDTAVYYCGSLDNSGAYTGGGQGSQVTVSS
B3: the koff in test [1] is 0.00915 s⁻¹. In addition, the dissociation constant Kd in test [2] is 4.61 nM.

B4: hSIRPα Nb S33 (VHH)
VHH: EVQLVESGGGLVQPGGSLRLSCTTSGFTLDYYSVGWFRQAPGKEREGVSCITASGSSTNYANSVKGRFTISRDKVKNTVYLQMSSLKPEDTAVYYCAAEPCTVVAGILQAPTSDFGSWGQGTQVTVSS
With B4, the off-rate constant (koff) in test [1] came out at 0.00544 s⁻¹. For the same molecule, the dissociation constant (Kd) in test [2] was 20 nM.

B5: hSIRPα Nb S45 (VHH)
VHH: HVQLVESGGGLVQPGGSLRLSCAARGFSFRDSAMSWARQAPGKGLEWVGAIYSDGSTVYEKSVKGRFTISRDNAKNTMYLQMHSLKPEDSARYYCAPKGVVADEGDYSGQGTLVTVSS
In the case of B5, the koff in test [1] worked out at 0.00164 s⁻¹. Besides, in test [2], the Kd was determined as 2.53 nM.

B6: hSIRPα Nb S12 (VHH)
VHH: QVQLVESGGGLVQPGGSLRLSCLVSGFSSSYYAIGWFRQAPGKEREGVSCITRSGDTTNYADSVKGRFTISRDDARNTVYLQMNSLKTEDTAVYSCALWAWAGSGRLRCTASEYGHWGQGTQVTVSS
In the case of B6, in test [1], the koff came to 0.0127 s⁻¹. For the same molecule, in test [2], the dissociation constant Kd is 25.9 nM.

B7: hSIRPα-S36 Nb (VHH)
VHH: EVQLVESGGGLVQPGGSLRLSCAASGFTLDYYAIGWFRQVPGKEREGVSCISSDGGGNTYYADSVKGRFTISRDNAKNTVYLQMNSLKPEDSAVYSCAAGPTYYSGSYCRDPHSDYDYWGQGTQVTVSS
With B7, the koff in test [1] came out at 0.0002 s⁻¹. The dissociation constant (Kd) in test [2] worked out at 0.12 nM.

B8: hSIRPα-S36K>R Nb (VHH)
VHH: EVQLVESGGGLVQPGGSLRLSCAASGFTLDYYAIGWFRQVPGREREGVSCISSDGGGNTYYADSVRGRFTISRDNARNTVYLQMNSLRPEDSAVYSCAAGPTYYSGSYCRDPHSDYDYWGQGTQVTVSS
Turning to B8, the Kd in test [3] turned out to be 0.19 nM.

B9: hSIRPα Nb S21 (VHH)
VHH: DVQLVESGGGLVQPGGSLTLSCAASGFTSGTYALAYFRQAPGKEREGVSCISNDGGSRNYADSVKGRFTISRDNAKNTMYLQMNSLKPEDTAVYYCAAGPWYYCSDFARRPDGMDYWGKGTPVTVSS
On to B9, for which, in test [2], the Kd came out at 2.56 nM.

B10: hSIRPα Nb S8 (VHH)
VHH: QVQLVESGGGLVQPGGSLRLSCADSEFRLDEYATGWFRQAPGKEREGVACISRSGSNTKYTDSVKGRFTISRDNAKKTVYLQMNSLKPEDTAVYYCAADLTSHYLSCSSYTDYNSWGQGTQVTVSS
On to B10, for which, in test [1], the off-rate constant (koff) is 0.0009 s⁻¹. The Kd in test [2] was 0.46 nM.

B11: hSIRPα Nb S14 (VHH)
VHH: EVQLVESGGGLVQPGGSLRLSCAASGFTANSYRMTWVRQAPGKGLEWVADIGTGNEWKYYPDSVKGRFTISRDAAKNTVYLQMNSLKPEDTAVYYCAKNGAVWYGEDGLDYWGKGTLVTVSS
As to B11, in test [1], the koff turned out to be 0.00376 s⁻¹. Also, in test [2], the equilibrium dissociation constant (Kd) worked out at 16.7 nM.

B12: hSIRPα Nb S17 (VHH)
VHH: QVQLVESGGGLVQPGGSLRLSCAASGFTLDSYVIGWFRQAPGKEREGVSCISQRIGSTDYADSVKGRFTISKDNAKNTAYLQMNALKPEDTAVYYCAAGRLYYSGTYCPQGGMSYWGKGSPVTVSS
In the case of B12, in test [1], the off-rate constant (koff) worked out at 0.00458 s⁻¹. Also, the dissociation constant Kd in test [2] is 26.6 nM.

B13: hSIRPα Nb S29 (VHH)
VHH: EVQLVESGGGLVQPGGSLRLSCAASGFTSETYAIGWFRQAPGKEREGVSCISNDGGSRNYADSVKGRFTISRDNAKNTSYLQMNSLKPEDTAVYYCAAGKYYYCLGYVSDGMDYWGKGTPVTVSS
In the case of B13, in test [1], the koff was found to be 0.00462 s⁻¹. The Kd in test [2] came out at 4.78 nM.

B14: hSIRPα Nb S41 (VHH)
VHH: HVQLVESGGGLVQPGGSLRLSCAASGETLDYYAIGYVRQAPGKEREGVSCISSRGDNTNYADSVKGRFTISRDNANNTVYLQMNSLKPEDTAVYYCVAIKDSWQNYYCSVGWVEYDVWGQGTQVTVSS
For B14, the koff in test [1] turned out to be 0.00383 s⁻¹. Besides, in test [2], the Kd came out at 5.65 nM.
